Target: SARS-CoV-2南非株(B.1.351)活病毒的S蛋白 (SARS-CoV-2 B.1.351)
Assay: cell-based or functional assay

B1: 9K抗体 (antibody, V domains shown)
VH: EVQLVESGGGVVQPGRSLGLSCAVSGFTFSSYAMHWVRQAPGKGLEWVALISNDGTIDSYADSVKGRFTISRDNSKNTLYLRMSSLRAEDTAVYYCARDKEQLVPTFDYWGQGTLVTVSS
VL: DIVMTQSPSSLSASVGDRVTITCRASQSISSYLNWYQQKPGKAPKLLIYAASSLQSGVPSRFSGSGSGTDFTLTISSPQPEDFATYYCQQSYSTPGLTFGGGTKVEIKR
  中和滴度(半抑制浓度，IC50), live virus CPE assay on Vero E6 cells: 11.5 µg/mL
